Laboratory results reported in PMC8516096.

Experiments:
Details in all cases: Holoenzyme reconstitution: 200 mM Tris-HCl pH 8.0, 30 mM KCl, 10 mM MgCl2, 50 mM NaCl, 1 mM DTT, 1 mM EDTA, BSA 20 ug/ml, 30 C 45 min; DNA binding: 50 mM …
[1] = molecular target: RNAP core enzyme (E, alpha2 beta beta' omega) (Escherichia coli) (UniProt P0A7Z4+P0A8V2+P0A8T7+P0A800); experiment: EMSA
[2] = molecular target: RNAP core enzyme (E, alpha2 beta beta' omega);RpoD (sigmaD, sigma70) (Escherichia coli;Salmonella enterica serovar Typhimurium ATCC 14028?) (UniProt P0A7Z4+P0A8V2+P0A8T7+P0A800+P0A2E3); experiment: EMSA
[3] = molecular target: T1, RNAP core enzyme (E, alpha2 beta beta' omega);RpoS (sigmaS, sigma38) (Escherichia coli;Salmonella enterica serovar Typhimurium ATCC 14028?) (UniProt P0A7Z4+P0A8V2+P0A8T7+P0A800+D0ZVL4); experiment: EMSA
[4] = molecular target: T1, RNAP core enzyme (E, alpha2 beta beta' omega);RpoS (sigmaS, sigma38) (Escherichia coli;Salmonella enterica serovar Typhimurium ATCC 14028?); experiment: EMSA with anti-RpoS immunoblot
[5] = molecular target: T2, RNAP core enzyme (E, alpha2 beta beta' omega);RpoS (sigmaS, sigma38);Crl (Escherichia coli;Salmonella enterica serovar Typhimurium ATCC 14028?;Salmonella enterica serovar Typhimurium ATCC 14028?) (UniProt P0A7Z4+P0A8V2+P0A8T7+P0A800+D0ZVL4+Q7CR52); experiment: EMSA with anti-RpoS immunoblot
[6] = molecular target: T2, RNAP core enzyme (E, alpha2 beta beta' omega);RpoS (sigmaS, sigma38);Crl (Escherichia coli;Salmonella enterica serovar Typhimurium ATCC 14028?;Salmonella enterica serovar Typhimurium ATCC 14028?); experiment: competition EMSA with anti-RpoS immunoblot

Measured: binding

AGTACATATAGTTTCATCAGAAGATTAATCGATGGTGTTATCATTAGGAAGATAAATTTCTTCATATATAACCCAGTCGATGACTACAATTACTTTTTAATAAGATGGCGATGTAAAAACATCGTAACAGTTTATTTAATAAATAATTTTTCAAATTGTAAGTTTTTATGTC (double strand) [PssrA region]
binds: [1] | [2] | [3] | [4] | [5] | [6]
